Experimental data reported in PMC7431413 (2020).

B1: N-terminal domain of STAT3, biotinylated (domain or fragment)
chain: QWNQLQQLDTRYLEQLHQLYSDSFPMELRQFLAPWIESQDWAYAASKESHATLVFHNLLGEIDQQYSRFLQESNVLYQHNLRRIKQFLQSRYLEKPMEIARIVARCLWEESRLLQTAATAAQQGGQANHPTAAVVT
modifications: biotin on the Avi-tag
B2: core fragment (CF) of STAT3, biotinylated (domain or fragment)
chain: GQANHPTAAVVTEKQQMLEQHLQDVRKRVQDLEQKMKVVENLQDDFDFNYKTLKSQGDMQDLNGNNQSVTRQKMQQLEQMLTALDQMRRSIVSELAGLLSAMEYVQKTLTDEELADWKRRQQIACIGGPPNICLDRLENWITSLAESQLQTRQQIKKLEELQQKVSYKGDPIVQHRPMLEERIVELFRNLMKSAFVVERQPCMPMHPDRPLVIKTGVQFTTKVRLLVKFPELNYQLKIKVCIDKDSGDVAALRGSRKFNILGTNTKVMNMEESNNGSLSAEFKHLTLREQRCGNGGRANCDASLIVTEELHLITFETEVYHQGLKIDLETHSLPVVVISNICQMPNAWASILWYNMLTNNPKNVNFFTKPPIGTWDQVAEVLSWQFSSTTKRGLSIEQLTTLAEKLLGPGVNYSGCQITWAKFCKENMAGKGFSFWVWLDNIIDLVKKYILALWNEGYIMGFISKERERAILSTKPPGTFLLRFSESSKEGGVTFTWVEKDISGKTQIQSVEPYTKQQLNNMSFAEIIMGYKIMDATNILVSPLVYLYPDIPKEEAFGKYCRPESQEHPEADPGSAAPYLKTKFICVTPTTCSNTI
modifications: biotin on the Avi-tag
B3: monobody MS3-6, displayed on yeast cells (designed binder)
chain: VSSVPTKLEVVAATPTSLLISWDAPAVTVDFYHITYGETGGNSPVQEFTVPGSKSTATISGLKPGVDYTITVYAYVSYPEYYFPSPISINYRT

Experiments:
Test in all cases: FACS; yeast display
[1] = biological target: MS3-N1
[2] = biological target: MS3-N7
[3] = biological target: MS3-N5
[4] = biological target: MS3-2
[5] = biological target: MS3-8
[6] = biological target: MS3-5
[7] = biological target: MS3-1
[8] = biological target: MS3-4
[9] = biological target: MS3-7
[10] = biological target: B2

## B1
[1]
  Kd: 65 nM
[2]
  Kd: 38 nM
[3]
  Kd: 39 nM

## B2
[4]
  Kd: 104 nM
[5]
  Kd: 235 nM
[6]
  Kd: 88 nM
[7]
  Kd: 127 nM
[8]
  Kd: 18 nM
[9]
  Kd: 135 nM

## B3
[10]
  Kd: 8 nM
